Source: the DeepSol protein solubility set

test: soluble on expression in E. coli; label from the status in PepcDB or PDB records

Soluble on expression in E. coli, not soluble:
MGSDKIHHHHHHMDLEIATVKAILTEHDLLKEIKSTKTVANTGISYDSRTVKPGYMFFCKGNFKPEYLSVARQNGATTYVSENEYPEGTGMTAIIVTNVTRAMAVLSATYYNFPQNDLFIIGITGTKGKTSSAYFAHSILNQKYPNQVALFSTIDRIVGPKPEDQFKSDLTTPESMNLFHDMRVAVDNGMKYLVMEVSSQAYLRDRVYGLKFDCGIFLNITPDHIGRNEHKDFEDYLHCKLQLMVNSKRCIIDADTDRFDDVFGAAKATTDPEQIYLFSADVENGGVDFLIQDEEDDLTSNRFTLVESSSKAEAFHVAGDYDLNVAGDYNQSNATAAIIAAALADVTYQDAVLPLKSIVIPGRMEHLNVPGHGVVFVDYAHNYASLHALLKFLKHQYHDGKVIVVVGSPGDKGISRRAGFGQALSEQADIAYLTTDDPAFEDPEQIIQQIMDNIKPGTVEVRQVLDRHDAIEQAIMNSSEKDVVVLAGKGEDPYQKVGGVDTPWPTDMGVAEEVKRGLS, MGSDKIHHHHHHMDLENKFSYHFLEGLTLTEDGILTQGNEQVYIPQKELGVLIVLLESAGHVVLKDMIIESVWKNIIVSDESLTRCIYSLRCIFEKIGYDRCIETIYRKGYRFSGQVFKTKINEDNTSDYSIAIFPFTTSLNTLDPLILNQELVQIISNKKIDGLYTYPMAATNFCNDHISQNSFLSRFKPDYFVTGRINQNNAVNTLYIELIDAKNLFLIASNHLPVDELHNTSQFIIDNILQTVHKPERSVRLAKQDQGYKNHYLSDEMLAGKKELYDFTPESIYRAMTIFDRLQNKSDIQTLKTECYCLLAECHMSLALHGKSELELAAQKALELLDYVSDITTVDGKILAIMGLITGLSGQAKVSHILFEQAKIHSTDIASLYYYRALVHFHNEKIEEARICIDKSLQLEPRRRKAVVIKECVDMYVPNPLKNNIKLYYKETESESHRVIIDNILKLKQLTRICMR, MGSDKIHHHHHHMDLTQLRMFCLVAETGSVARAAEQLHRVPSNLTTRLRQLELELGTDLFIREKQRLRLSPIGHNFLCYAQRILALSEEAISMTRTGEPAGNFALGSMESTAATRLPTLLAAYHQRYPNVSLSLNTGTSGEIIERVRAGTLAAALVDGPVVYDELNGCSCFAEQLVLISDPSHSPITHARDASNDTLFAFRPSCSYRKRLENWFRQDGVVPGTIMEIHSYHAMLACVASGSGLAMLPYAVLESLPAGARVQVHELPPDIAAASTWLVWRRDAFGPNVEALKKLIIEQSAQSE, MGSDKIHHHHHHMDRFLSIEAFVRVAEASSFAEAARQLGVTSSVVTNRIQQLEKFVNAPLFHRSTRHVRLSEVGETFYRECAEVVGRVNELTDQMRELRATPTGRLRIQMLPGFALDHFGVPLAEFNRRYPGIQLDIIVNDRVVDPVEEGFDIAFQIFPPISESLIERRLFVVRRLFCASPAYLDAHGAPQHPRELLQHTTALYSGYPSRNRWTMTRGDEVVEMELPGMIRSNSVHLLREYALTGGGVVCLPTLVASEALVAGRLVPILTDFEIAPLSFAAVYPATQRQALKVKALVEFLAEYIGDESPWDRPLLERGWVR, MGSDKIHHHHHHMDRIGIDTWANISAEGWSSLLLGNGASIAIHKEFAYPTLHGIADAKGLLATTAPIFAKLGTTDFEHVLLACWYAEHVNGALGTPSAAISAAYEEVRTALIEAVHSVHPVHADVAADLQRVGAFASAFPTVVSLNYDITLYWAMLLFNAANGSWFKDAFHDGEFQTDWEYLRRPYGHAAGATLVFYPHGSLAVARDYLGDETKLSVGAGAAGDLLGTITRRWASGHYVPVFVSEGTSHQKVAAIRRSHYLTNVYEEVLPALGESLVVYGWSFDERDQHVLAAIAANPPKRMAVSVFTGQPDGDQQAFCLQVLKAVGRSLPGTEVTFFDSRSPGCWNNP, MGSDKIHHHHHHMDTELARTFLTVAATGNFVAAASRLHVTQSTVSARIQTLETTLGARLFQRGRNGAELTASGKRFLRHAKHLVRTVEQALHDVGLPQGFHDVLTLSGRIALWEGFLPHWVAWMREAAPDVSLRLEIGFEADIMQGLIEGTTDIGVMYTPTSRPGLVVEPLFDENLMLVTSDLARGWPEEGYIHIDWGPEFHAQFSDHFPDAPPPTVVANIGWLGVQQLLTYGGSGYFPQRLVRQLIEDGRLWRVPDSPQFKLTAWMVFPREGSATLKSALDGLRTLARDEQARL, MGSDKIHHHHHHMDVAAEYPVDKPDTQVSVRDVFGIESDLTVPAFTEVSEHVPDRDDAYCFDRDTTLAVLAGFAFNRRVMIQGYHGTGKSTHIEQIASRLNWPCIRVNLDSHVSRIDLVGKDAIVLRDGLQVTEFREGILPWCLQRPIALTFDEYDAGRADVMFVIQRVLEVEGRLTLLDQNKVIRPHPYFRLFATANTVGLGDTTGLYHGTQQINQGQMDRWNIVATLNYLEHDVEVGIALAKRPEYDTPEGRAKINAMVGVADLSRSGFINGDISTVMSPRTVLTWAENATIFGDDAFAFRVTFLNKCDETERPIIAEYYQRCFGKELPESAAFRTAFL, MGSDKIHHHHHHMDVDLGKLFFCGFNDFNEEVKEIIRKYRPTGILIYPGVLSKEYLLMDFMSFLSKEGDFLISSDHEGGQLEVLKYVPSSPGNLAFGKNSPDVTYRYSRVAGKIMEIVGLNMVFAPVLDLLSEESSSVIDIRSYGSDPKIVAEHGARACEGYLEGGVIPCIKHFPGHGKAREDSHLTLPVVDAPFEKLWEEDLLPFRKVLEREKKVTVMTAHVRYSSIDSLPATLSEKIITDVLREKIGFDGLVISDAMEMSAVSNNFSVEEIVSLFLNAGGNMILLGDYRNLPVYYETLVKLLEDGKVQKDKVERSIRTVEKYLAFAKKNSGVGFLADVSMKAVEFLGFEKIDHTSEVTLLVPSSENLSQADTTGGDYDQIPEIVSRFFEVENVVRYTVEDGPEFVEGDLIFDFVADIPNEKALKAHLSLPAEKTVYFVLRNPFDVRYFEGRKIVVTRSTKPISIYKSLEHFLGRCDS, MGSDKIHHHHHHMDVENIFRDVKLSKTEMTVLRFIQNDPEQCIRQGVRAVAEQCYSNPSSLVRLAKKLKFSGWLELVYFIKFNITMPKLDVTNDIDYMSVQPEEALTPLLASLNQQRILIHGSGFSQLIAQYIYNKFLVTGVNASLALWPDYEILEQKNAACFDSIWIISKSGRSSSALNWVKALEGKEINLVCFTGDYQSPLAQAADTAFIIHDPQKFDDDIYWSNPFFGYCILGFERLLKMWFTSLRSNS, MGSDKIHHHHHHMDWEDAPLPYKLYRNVPIIPLSLEIPLSLPNSSTTPTLNEIGHYLWCSFGLTQLCQLNSEKILFRRSIPSGGALYPNELYIYLKIDDYPDGIYHYDAAHHRLILIREGNFDSYLTEALGNRCNLQSCFGAAFVSTMFWKNFFKYNNFSYRLQGLDSGVLIGQLLECAKQFGYTNGVYFQFLDRAINHLLGLSEGEESVYAVLPFSTEPQTNWFHNDYREIKTVTSHELLQQIPPLAHEHFVRSKHVNEYPMITKINEASMIESTAQFQTLAHEEHFQHHAHAVQLPKVERLSYDFLQLCRKRYSPDADFILTKWDAAELATLLQEASLSFPYYNDLDGQYVNENARVSLYGCFYNVKDIENGAYSYNSKTHSIQPLRYGDLRYPLQSSMTMDNVNLFQVPLCLHVVGKKDYYTNALGYRGYRIHQMEAGILVHKLVFAATAMGMAGHPLLSFDTNSCDQLYGIEAGNETSLIQIPVGAYRARNWLKGALRN, MGSDKIHHHHHHMEEANFYHALKIDNDRCIGCTHCMKECPTGAIRIRDGKALIHKDWCVDCGECLKSCPTEAIYVEQDDFQRIFDYKCRVALMPTVFIGQFSKYTTEKEIISAVMELGFTHVFQVEFTADMIHKEMVRQMENAEEKPVISSFCPAIVRLIQVRFPALVDNILLVKAPVNASATYYHKILEGQGVPSEEIGIFYVTPCAAKIAALKGAEGYSSTIKGVINMDTLYNKVYHILKNRPRGYEPECELPPPLTKKEMRWSQTGGEAKHFSGRCLAIDEIHNVIDFLERMETTSEVRNVDFLELRACDRSCAGGVLAVANRFLTAERIMKRSMNRDKVPMIYAADNFEALSYLRQHITIRPVQPNPKRLYDGTIDEMLKKMEQVRKLMCYLPGIDCGACGSPNCQSLAEDIVRHEAQFSDCVFMQRNMEKHGKLDQEHAFRIVEKTWGKDRLNKDCYKKGAKYEGL, MGSDKIHHHHHHMEEKKALIIVDVQKAFDDKKWGERNNVKAEENISKILELWREKGWTVIYIQHTSDKPHSLFHPKNEGFAIKEIVKPMDEEVIITKTVNSSFIGTNLEEFLKLNEITTVVITGLTTPHCVSTTTRMSGNLGFDTYLISDATAAFGMRDQNDTYYDAATIHNISLATLHDEFATILTTDQLINDFIKTH, MGSDKIHHHHHHMEELREAFEEGKPVILIDRNRENEADFVFPAQLITEDVVSFFVTYGKGLFCVTADEEDLLKRGFVKLSSNYGANYFVPVDWGTGTGISALERAETCRKLAEGRYFHEFRYPGHVTVIGGIGFQRRKGHTEASLEISELAGFSRHAVIVEILDEKGNSHNLDYVLKLSEKFSLPVLEMDDVWREFVKRKLLMKKKAEATLPTDFGVFKVVSFENHLDGKEHFAIVKEPLEDPVAVRIHSECVTGDVLSSLRCDCGSQLANFLRYMSAHGGILIYLRQEGRGIGLSNKIAAYSLQDKGLDTVEANRVLGFSEDERDYAPAAQILKALGIERVLLFTNNQRKTVGLEKYGIEVVETKRLYGRVTPHNRFYLSTKMKKLGHELEEIFREVNS, MGSDKIHHHHHHMEETVQRIEPARLEDVAEPISDALAELSASSAVLGAKLHPRTAANLADLVRIMNTYYSNLIEGHNTRPRDIERALAGEFDKDQERRNLQVEAAAHVRLQGEIDRLAAEGQLPEPASLDFLRWLHAEFYRDADEAMLRIRGPDREFLMVPGRWRSQPEHDVTVGRHQPPSSDRVEAFMEHFASRYRFQRTGKAARILAIPAAHHRFNYIHPFPDGNGRVSRLMSHAMAHEAGIAAHGLWSISRGLARGLESRGDYKRMMDHADMPRQGDRDGRGNLSMRALADFTLWFLRVCIDQVSFMSSLFDLNQLARRLQRFVQRYDLKPEAFRLLEEALLRGEFDRGEASRIAGLPERTARRVFTEVLELGLLASDTPKGPVSLRFPVDTLDELFPKLFPET, MGSDKIHHHHHHMEGKALRQGSIAGKGAPRNTASLIQYAQDHFDAAHFQGLMAIYGRPLADRAVALTHDRGRRVVDFVRCSYLGLDNHPQIVAGAVEAMKEYGTLHWSCARTRLNFSILGDLEAALSELFDARVITYTTVLAANMGALPLIASGHLTGGVKPLMVFDRLAHATLAFHKGTIAAETRVETIAHNDLEALEMLCRTNGSVAFVCDGVYSMGGSADLARLRRLQERYGLFLYIDDAHGVSIFGKHGEGFARSQMSGPLGERTIVAASLGKGFGASGGLIMLGTARQEELFRRFAVAHAFSASLNVAAIGAARASQQLHLTEELTELQQRLRSRTALFDSLVPTEQQGSPLPIRTVEIGDEMTAIGAARALLDRGFYTSAIFFPTVARGRAGLRLCPTAGHSEDDIRGLGIAIQDVLKEISGR, MGSDKIHHHHHHMEHLPEQYRQLFPTLQTHTMLASCSQSALAEPVSRAIQDYYDSLLYKGTNWKEAIEKTEFARNEFAKLIGAEPDEVAIVPSVSDALVSVASSLTAFGKKHVVYTDMDFPAVPHVWQAHSDYTVSVIPSIDGVLPLEQYETHISDETVLTCVPHVHYRDGYVQDIKAIAEISQRKGSLLFVDAYQSAGHIPIDVKEWGVDMLAAGTRKYLLGIPGVAFLYVRKELADALKPKASAWFGRESGFDGAYAKVARRFQTGTPAFISVYAAAAALSLLNHIGVSHIRDHVKTICADAVQYAAEKGLQLAAAQGGIQPGMVAIRDERASETAGLLKKKKVICAPRENVIRLAPHFYNTKEEMRHAIDEIAAKTIHK
